Source: PMC7362310 (Molecular cell, 2020)

B1: FLAG-tagged EN2 purified from bacteria (natural protein, UniProt P19622 1-333, looked up)
chain: MEENDPKPGEAAAAVEGQRQPESSPGGGSGGGGGSSPGEADTGRRRALMLPAVLQAPGNHQHPHRITNFFIDNILRPEFGRRKDAGTCCAGAGGGRGGGAGGEGGASGAEGGGGAGGSEQLLGSGSREPRQNPPCAPGAGGPLPAAGSDSPGDGEGGSKTLSLHGGAKKGGDPGGPLDGSLKARGLGGGDLSVSSDSDSSQAGANLGAQPMLWPAWVYCTRYSDRPSSGPRSRKPKKKNPNKEDKRPRTAFTAEQLQRLKAEFQTNRYLTEQRRQSLAQELSLNESQIKIWFQNKRAKIKKATGNKNTLAVHLMAQGLYNHSTTAKEGKSDSE
B2: FLAG-tagged EN1 purified from bacteria (natural protein, UniProt Q05925 1-392, looked up)
chain: MEEQQPEPKSQRDSALGAAAAATPGGLSLSLSPGASGSSGSGSDGDSVPVSPQPAPPSPPAAPCLPPLAHHPHLPPHPPPPPPQHLAAPAHQPQPAAQLHRTTNFFIDNILRPDFGCKKEQPPPQLLVAAAARGGAGGGGRVERDRGQTAAGRDPVHPLGTRAPGAASLLCAPDANCGPPDGSQPAAAGAGASKAGNPAAAAAAAAAAVAAAAAAAAAKPSDTGGGGSGGGAGSPGAQGTKYPEHGNPAILLMGSANGGPVVKTDSQQPLVWPAWVYCTRYSDRPSSGPRTRKLKKKKNEKEDKRPRTAFTAEQLQRLKAEFQANRYITEQRRQTLAQELSLNESQIKIWFQNKRAKIKKATGIKNGLALHLMAQGLYNHSTTTVQDKDESE

What was measured:
[1] = molecular target: FLAG-tagged BRD4-L purified from insect Sf9 cells (human, UniProt O60885-1 1-1362); assay: pull-down
[2] = molecular target: FLAG-tagged BRD4-S(a) purified from insect Sf9 cells (human, UniProt O60885-2 1-722); assay: pull-down

Binder	binding result [1]	binding result [2]
B1	binds	binds
B2	binds	binds
